Measurements published in patent US20060182736.

What was measured:
Assay in all cases: cell_activity
[1] = system: TAT-F121-KRAB (QSHT-RSHR-RDHT) (artificial); settings: 293 cells
[2] = system: TAT-F475-KRAB (QSHR2-RDHT-RSNR) (artificial)
[3] = system: TAT-F475-p65 (QSHR2-RDHT-RSNR) (artificial); settings: +/-0.48, 293 cells
[4] = system: TAT-F435-KRAB/KOX (QSHR2-RDHT-RSHR) (artificial); settings: +/-0.35, VEGF mRNA, 293 cells; protein 2.7 fold; H460 3.8 fold at 12 h (p247)
[5] = system: TAT-F435-p65 (QSHR2-RDHT-RSHR) (artificial); settings: +/-0.5, secreted VEGF at 48 h, 293 cells, lysate
Sequence of TAT-F435-p65 (QSHR2-RDHT-RSHR) (artificial) (chain, as listed by the source): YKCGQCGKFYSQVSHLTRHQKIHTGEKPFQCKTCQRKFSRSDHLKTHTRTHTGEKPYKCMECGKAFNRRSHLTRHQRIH

Sequence of TAT-F475-KRAB (QSHR2-RDHT-RSNR) (artificial) (chain, as listed by the source): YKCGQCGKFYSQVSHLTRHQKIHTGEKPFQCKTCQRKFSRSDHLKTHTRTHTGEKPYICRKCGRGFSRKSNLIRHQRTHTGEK
Sequence of TAT-F121-KRAB (QSHT-RSHR-RDHT) (artificial) (chain, as listed by the source): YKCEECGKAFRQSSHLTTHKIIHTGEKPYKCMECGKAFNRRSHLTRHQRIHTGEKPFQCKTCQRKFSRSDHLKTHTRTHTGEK

## native human VEGF promoter in pGL3-basic luciferase reporter
[1]; +/-0.14, purified protein
  activity (fold repression): 2.1
[2]; 80 ug lysate, HEK293, 1.5 fold at 40 ug, vs TAT-only
  activity (fold repression): 2
[3]
  activity (fold activation): 2.5

## endogenous VEGF-A gene
[1]; +/-0.01, VEGF mRNA, lysate
  activity (fold repression): 1.7
[4]
  activity (fold repression): 3.1
[5]
  activity (fold activation): 2.5
[2]; +/-0.4, VEGF mRNA, 293 cells
  activity (fold repression): 3.1
